Data taken from US12630600B2 (MEDIMMUNE LIMITED, priority 2022, dated 2026).
Starred links: 1 amine or outer side, 2 acyl side, 3 side chain; linkers in the order of their positions; H or OH if unused. Non-standard residues stand in square brackets, D forms with d. Groups on a side chain read outwards from the residue. No end group written: not given here. *: point of attachment. C20 diacid = O=C(O)CCCCCCCCCCCCCCCCCCC(=O)*; C18 diacid = O=C(O)CCCCCCCCCCCCCCCCC(=O)*; γGlu = O=C(O)[C@H](CCC(=O)[*:2])N[*:1]; αMeF = C[C@](N)(Cc1ccccc1)C(=O)O; AEEA = NCCOCCOCC(=O)O; Aib = CC(C)(N)C(=O)O

Key:
[1] = molecular target: human glucagon receptor (human, UniProt P47871); experiment: cell-based or functional assay
[2] = molecular target: human GLP-1 receptor (human, UniProt P43220); experiment: cell-based or functional assay

Row | cAMP production EC50 [1] | cAMP production EC50 [2] | Binder
1 | 4590 pM | 22.6 pM | H[Aib]QGTFTSDVSK[αMeF]LDSK([AEEA-AEEA-γGlu-C18 diacid])RAQDFVRWLASRGI-OH (N-terminus assumed; SMILES CC[C@H](C)[C@H](NC(=O)CNC(=O)[C@H](CCCNC(=N)N)NC(=O)[C@H](CO)NC(=O)[C@H](C)NC(=O)[C@H](CC(C)C)NC(=O)[C@H](Cc1c[nH]c2ccccc12)NC(=O)[C@H](CCCNC(=N)N)NC(=O)[C@@H](NC(=O)[C@H](Cc1ccccc1)NC(=O)[C@H](CC(=O)O)NC(=O)[C@H](CCC(N)=O)NC(=O)[C@H](C)NC(=O)[C@H](CCCNC(=N)N)NC(=O)[C@H](CCCCNC(=O)COCCOCCNC(=O)COCCOCCNC(=O)CC[C@H](NC(=O)CCCCCCCCCCCCCCCCC(=O)O)C(=O)O)NC(=O)[C@H](CO)NC(=O)[C@H](CC(=O)O)NC(=O)[C@H](CC(C)C)NC(=O)[C@](C)(Cc1ccccc1)NC(=O)[C@H](CCCCN)NC(=O)[C@H](CO)NC(=O)[C@@H](NC(=O)[C@H](CC(=O)O)NC(=O)[C@H](CO)NC(=O)[C@@H](NC(=O)[C@H](Cc1ccccc1)NC(=O)[C@@H](NC(=O)CNC(=O)[C@H](CCC(N)=O)NC(=O)C(C)(C)NC(=O)[C@@H](N)Cc1c[nH]cn1)[C@@H](C)O)[C@@H](C)O)C(C)C)C(C)C)C(=O)O) [Peptide 145]
2 | 268 pM | 143 pM | H[Aib]QGTFTSDVSK[αMeF]LDSK([γGlu-γGlu-AEEA-AEEA-γGlu-γGlu-C18 diacid])RAQDFVRWLLEG[Aib]-OH (N-terminus assumed; SMILES CC(C)C[C@H](NC(=O)[C@H](CC(C)C)NC(=O)[C@H](Cc1c[nH]c2ccccc12)NC(=O)[C@H](CCCNC(=N)N)NC(=O)[C@@H](NC(=O)[C@H](Cc1ccccc1)NC(=O)[C@H](CC(=O)O)NC(=O)[C@H](CCC(N)=O)NC(=O)[C@H](C)NC(=O)[C@H](CCCNC(=N)N)NC(=O)[C@H](CCCCNC(=O)CC[C@H](NC(=O)CC[C@H](NC(=O)COCCOCCNC(=O)COCCOCCNC(=O)CC[C@H](NC(=O)CC[C@H](NC(=O)CCCCCCCCCCCCCCCCC(=O)O)C(=O)O)C(=O)O)C(=O)O)C(=O)O)NC(=O)[C@H](CO)NC(=O)[C@H](CC(=O)O)NC(=O)[C@H](CC(C)C)NC(=O)[C@](C)(Cc1ccccc1)NC(=O)[C@H](CCCCN)NC(=O)[C@H](CO)NC(=O)[C@@H](NC(=O)[C@H](CC(=O)O)NC(=O)[C@H](CO)NC(=O)[C@@H](NC(=O)[C@H](Cc1ccccc1)NC(=O)[C@@H](NC(=O)CNC(=O)[C@H](CCC(N)=O)NC(=O)C(C)(C)NC(=O)[C@@H](N)Cc1c[nH]cn1)[C@@H](C)O)[C@@H](C)O)C(C)C)C(C)C)C(=O)N[C@@H](CCC(=O)O)C(=O)NCC(=O)NC(C)(C)C(=O)O) [Peptide 137]
3 | 184 pM | 104 pM | H[Aib]QGTFTSDVSK[αMeF]LDSK([γGlu-γGlu-AEEA-AEEA-γGlu-γGlu-C18 diacid])RAQDFVRWLLE[Aib]G-OH (N-terminus assumed; SMILES CC(C)C[C@H](NC(=O)[C@H](Cc1c[nH]c2ccccc12)NC(=O)[C@H](CCCNC(=N)N)NC(=O)[C@@H](NC(=O)[C@H](Cc1ccccc1)NC(=O)[C@H](CC(=O)O)NC(=O)[C@H](CCC(N)=O)NC(=O)[C@H](C)NC(=O)[C@H](CCCNC(=N)N)NC(=O)[C@H](CCCCNC(=O)CC[C@H](NC(=O)CC[C@H](NC(=O)COCCOCCNC(=O)COCCOCCNC(=O)CC[C@H](NC(=O)CC[C@H](NC(=O)CCCCCCCCCCCCCCCCC(=O)O)C(=O)O)C(=O)O)C(=O)O)C(=O)O)NC(=O)[C@H](CO)NC(=O)[C@H](CC(=O)O)NC(=O)[C@H](CC(C)C)NC(=O)[C@](C)(Cc1ccccc1)NC(=O)[C@H](CCCCN)NC(=O)[C@H](CO)NC(=O)[C@@H](NC(=O)[C@H](CC(=O)O)NC(=O)[C@H](CO)NC(=O)[C@@H](NC(=O)[C@H](Cc1ccccc1)NC(=O)[C@@H](NC(=O)CNC(=O)[C@H](CCC(N)=O)NC(=O)C(C)(C)NC(=O)[C@@H](N)Cc1c[nH]cn1)[C@@H](C)O)[C@@H](C)O)C(C)C)C(C)C)C(=O)N[C@@H](CC(C)C)C(=O)N[C@@H](CCC(=O)O)C(=O)NC(C)(C)C(=O)NCC(=O)O) [Peptide 138]

Further lines, the binder ahead of its results:

Row | Binder | cAMP production EC50 [1] | cAMP production EC50 [2]
4 | H[Aib]QGTFTSDVSK[αMeF]LDSK([AEEA-AEEA-γGlu-C18 diacid])RARDFVQWLLE[Aib]G-OH (N-terminus assumed; SMILES CC(C)C[C@H](NC(=O)[C@H](Cc1c[nH]c2ccccc12)NC(=O)[C@H](CCC(N)=O)NC(=O)[C@@H](NC(=O)[C@H](Cc1ccccc1)NC(=O)[C@H](CC(=O)O)NC(=O)[C@H](CCCNC(=N)N)NC(=O)[C@H](C)NC(=O)[C@H](CCCNC(=N)N)NC(=O)[C@H](CCCCNC(=O)COCCOCCNC(=O)COCCOCCNC(=O)CC[C@H](NC(=O)CCCCCCCCCCCCCCCCC(=O)O)C(=O)O)NC(=O)[C@H](CO)NC(=O)[C@H](CC(=O)O)NC(=O)[C@H](CC(C)C)NC(=O)[C@](C)(Cc1ccccc1)NC(=O)[C@H](CCCCN)NC(=O)[C@H](CO)NC(=O)[C@@H](NC(=O)[C@H](CC(=O)O)NC(=O)[C@H](CO)NC(=O)[C@@H](NC(=O)[C@H](Cc1ccccc1)NC(=O)[C@@H](NC(=O)CNC(=O)[C@H](CCC(N)=O)NC(=O)C(C)(C)NC(=O)[C@@H](N)Cc1c[nH]cn1)[C@@H](C)O)[C@@H](C)O)C(C)C)C(C)C)C(=O)N[C@@H](CC(C)C)C(=O)N[C@@H](CCC(=O)O)C(=O)NC(C)(C)C(=O)NCC(=O)O) [Peptide 143] | 32.6 pM | 19.1 pM
5 | H[Aib]QGTFTSDVSK[αMeF]LDSK([AEEA-AEEA-γGlu-C18 diacid])RARDFVAWLLE[Aib]G-OH (N-terminus assumed; SMILES CC(C)C[C@H](NC(=O)[C@H](Cc1c[nH]c2ccccc12)NC(=O)[C@H](C)NC(=O)[C@@H](NC(=O)[C@H](Cc1ccccc1)NC(=O)[C@H](CC(=O)O)NC(=O)[C@H](CCCNC(=N)N)NC(=O)[C@H](C)NC(=O)[C@H](CCCNC(=N)N)NC(=O)[C@H](CCCCNC(=O)COCCOCCNC(=O)COCCOCCNC(=O)CC[C@H](NC(=O)CCCCCCCCCCCCCCCCC(=O)O)C(=O)O)NC(=O)[C@H](CO)NC(=O)[C@H](CC(=O)O)NC(=O)[C@H](CC(C)C)NC(=O)[C@](C)(Cc1ccccc1)NC(=O)[C@H](CCCCN)NC(=O)[C@H](CO)NC(=O)[C@@H](NC(=O)[C@H](CC(=O)O)NC(=O)[C@H](CO)NC(=O)[C@@H](NC(=O)[C@H](Cc1ccccc1)NC(=O)[C@@H](NC(=O)CNC(=O)[C@H](CCC(N)=O)NC(=O)C(C)(C)NC(=O)[C@@H](N)Cc1c[nH]cn1)[C@@H](C)O)[C@@H](C)O)C(C)C)C(C)C)C(=O)N[C@@H](CC(C)C)C(=O)N[C@@H](CCC(=O)O)C(=O)NC(C)(C)C(=O)NCC(=O)O) [Peptide 142] | 108 pM | 59.4 pM
6 | H[Aib]QGTFTSDVSK[αMeF]LDSK([AEEA-AEEA-γGlu-C18 diacid])RAQDFVAWLLE[Aib]G-OH (N-terminus assumed; SMILES CC(C)C[C@H](NC(=O)[C@H](Cc1c[nH]c2ccccc12)NC(=O)[C@H](C)NC(=O)[C@@H](NC(=O)[C@H](Cc1ccccc1)NC(=O)[C@H](CC(=O)O)NC(=O)[C@H](CCC(N)=O)NC(=O)[C@H](C)NC(=O)[C@H](CCCNC(=N)N)NC(=O)[C@H](CCCCNC(=O)COCCOCCNC(=O)COCCOCCNC(=O)CC[C@H](NC(=O)CCCCCCCCCCCCCCCCC(=O)O)C(=O)O)NC(=O)[C@H](CO)NC(=O)[C@H](CC(=O)O)NC(=O)[C@H](CC(C)C)NC(=O)[C@](C)(Cc1ccccc1)NC(=O)[C@H](CCCCN)NC(=O)[C@H](CO)NC(=O)[C@@H](NC(=O)[C@H](CC(=O)O)NC(=O)[C@H](CO)NC(=O)[C@@H](NC(=O)[C@H](Cc1ccccc1)NC(=O)[C@@H](NC(=O)CNC(=O)[C@H](CCC(N)=O)NC(=O)C(C)(C)NC(=O)[C@@H](N)Cc1c[nH]cn1)[C@@H](C)O)[C@@H](C)O)C(C)C)C(C)C)C(=O)N[C@@H](CC(C)C)C(=O)N[C@@H](CCC(=O)O)C(=O)NC(C)(C)C(=O)NCC(=O)O) [Peptide 141] | 392 pM | 264 pM
7 | H[Aib]QGTFTSDVSK[αMeF]LDSK([γGlu-γGlu-AEEA-AEEA-γGlu-γGlu-C20 diacid])RAQDFVRWLLE[Aib]G-OH [Peptide 139] | 984 pM | 630 pM
8 | H[Aib]QGTFTSDVSK[αMeF]LDSK([γGlu-γGlu-AEEA-AEEA-γGlu-γGlu-C18 diacid])RARDFVRWLLE[Aib]G-OH (N-terminus assumed; SMILES CC(C)C[C@H](NC(=O)[C@H](Cc1c[nH]c2ccccc12)NC(=O)[C@H](CCCNC(=N)N)NC(=O)[C@@H](NC(=O)[C@H](Cc1ccccc1)NC(=O)[C@H](CC(=O)O)NC(=O)[C@H](CCCNC(=N)N)NC(=O)[C@H](C)NC(=O)[C@H](CCCNC(=N)N)NC(=O)[C@H](CCCCNC(=O)CC[C@H](NC(=O)CC[C@H](NC(=O)COCCOCCNC(=O)COCCOCCNC(=O)CC[C@H](NC(=O)CC[C@H](NC(=O)CCCCCCCCCCCCCCCCC(=O)O)C(=O)O)C(=O)O)C(=O)O)C(=O)O)NC(=O)[C@H](CO)NC(=O)[C@H](CC(=O)O)NC(=O)[C@H](CC(C)C)NC(=O)[C@](C)(Cc1ccccc1)NC(=O)[C@H](CCCCN)NC(=O)[C@H](CO)NC(=O)[C@@H](NC(=O)[C@H](CC(=O)O)NC(=O)[C@H](CO)NC(=O)[C@@H](NC(=O)[C@H](Cc1ccccc1)NC(=O)[C@@H](NC(=O)CNC(=O)[C@H](CCC(N)=O)NC(=O)C(C)(C)NC(=O)[C@@H](N)Cc1c[nH]cn1)[C@@H](C)O)[C@@H](C)O)C(C)C)C(C)C)C(=O)N[C@@H](CC(C)C)C(=O)N[C@@H](CCC(=O)O)C(=O)NC(C)(C)C(=O)NCC(=O)O) [Peptide 144] | 702 pM | 45.2 pM
